Where two headings read alike, the source gives them in different places.
Key:
Assay in all cases: ELISA
[1] = biological target: T1, Biotinylated human α2-antiplasmin (Asn-α2-AP form) (human, UniProt P08697 40-491, biotin (EZ-Link Sulfo-NHS-Biotinylation Kit), sites not stated)
T1 sequence (looked up): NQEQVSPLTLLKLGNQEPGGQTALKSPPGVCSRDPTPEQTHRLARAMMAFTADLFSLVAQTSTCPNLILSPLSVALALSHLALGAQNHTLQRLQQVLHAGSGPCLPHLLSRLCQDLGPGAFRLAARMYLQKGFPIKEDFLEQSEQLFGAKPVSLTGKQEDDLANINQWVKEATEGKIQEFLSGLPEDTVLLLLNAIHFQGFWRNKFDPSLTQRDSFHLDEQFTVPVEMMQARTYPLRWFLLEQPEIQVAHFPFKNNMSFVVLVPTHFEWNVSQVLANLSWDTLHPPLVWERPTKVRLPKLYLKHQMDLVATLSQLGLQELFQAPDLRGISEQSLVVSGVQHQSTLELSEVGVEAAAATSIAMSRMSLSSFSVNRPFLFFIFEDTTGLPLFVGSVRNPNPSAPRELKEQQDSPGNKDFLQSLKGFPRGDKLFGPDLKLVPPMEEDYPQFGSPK

[2] = biological target: T1, Biotinylated human α2-antiplasmin …; remark: listed apart in the source
[3] = biological target: T1, Biotinylated human α2-antiplasmin …; remark: listed apart in the source
[4] = biological target: T1, Biotinylated human α2-antiplasmin …; remark: listed apart in the source

Kd [1]: 98 nM
Kd [2]: 105 nM
Kd [3]: 5.5 nM
Kd [4]: 94 nM
B1: Fibrin-derived D-D fragment (domain or fragment)
chain 1: VSEDLRSRIEVLKRKVIEKVQHIQLLQKNVRAQLVDMKRLEVDIDIKIRSCRGSCSRALAREVDLKDYEDQQKQLEQVIAKDLLPSR
chain 2: DNENVVNEYSSELEKHQLYIDETVNSNIPTNLRVLRSILENLRSKIQKLESDVSAQMEYCRTPCTVSCNIPVVSGKECEEIIRKGGETSEMYLIQPDSSVKPYRVYCDMNTENGGWTVIQNRQDGSVDFGRKWDPYKQGFGNVATNTDGKNYCGLPGEYWLGNDKISQLTRMGPTELLIEMEDWKGDKVKAHYGGFTVQNEANKYQISVNKYRGTAGNALMDGASQLMGENRTMTIHNGMFFSTYDRDNDGWLTSDPRKQCSKEDGGGWWYNRCHAANPNGRYYWGGQYTWDMAKHGTDDGVVWMNWKGSWYSMRKMSMKIRPFFPQQ
chain 3: KMLEEIMKYEASILTHDSSIRYLQEIYNSNNQKIVNLKEKVAQLEAQCQEPCKDTVQIHDITGKDCQDIANKGAKQSGLYFIKPLKANQQFLVYCEIDGSGNGWTVFQKRLDGSVDFKKNWIQYKEGFGHLSPTGTTEFWLGNEKIHLISTQSAIPYALRVELEDWNGRTSTADYAMFKVGPEADKYRLTYAYFAGGDAGDAFDGFDFGDDPSDKFFTSHNGMQFSTWDNDNDKFEGNCAEQDGSGWWMNKCHAGHLNGVYYQGGTYSKASTPNGYDNGIIWATWKTRWYSMKKTTMKIIPFNRLTIGEGQQHHLGGAK
modifications: covalent γ-γ cross-linking between the D regions
